Experimental findings from the supplement of paper PMC9170038 are described below.

The subject of the series is MS2 coat protein. As to the kind of experiment: apparent KD of MS2 coat protein; designed switch direction (-1 OFF switch, 1 ON switch): -1; higher = weaker reporter binding. An outline of the steps:
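Stalled E. coli RNA polymerase transcribed designed RNA switches on Illumina chips, which were then titrated with SNAP-549-labelled MS2 coat protein, doubling from 0.7 or 1.5 nM to 3 µM. Steps lasted from 0.8–1.5 h at the lowest concentration to 10–20 min at the highest. The apparent KD is each design's median over clusters of curve-fitted normalised fluorescence.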

[1] abbreviates: input ligand: microRNA oligo, concentration not stated.
The mark [2] stands for this setting: Eterna round: R95, input ligand: FMN 200 uM.
The mark [3] stands for this setting: Eterna round: R95, input ligand: microRNA oligo, concentration not stated.
[4] abbreviates: Eterna round: R95, input ligand: none.

For the sequence “UACAUGAGGAUCACCCAUGUUUUGUCGUGUAUGGUAUUUAUCUAGGAUAUCAAUGUAUGUAUUUAUGAGAAGGAGAAUAUUAAU [JMF's solution 43] (Eterna round: R96, puzzle: Exclusion NG 3)”, the “apparent KD of MS2 coat protein” value is 47.2 nM (input ligand: FMN 200 uM), 27.4 nM under setting [1] and 40.9 nM (input ligand: none).
Turning to “UACAUGAGGAUCACCCAUGUUUUGUCGUGUAUGGUAUUUAUCUAGGAUAUCAAUUGAUUUAUUCAUGAGAAGGAGAAUAUUAAU [JMF's solution 64] (Eterna round: R96, puzzle: Exclusion NG 3)”, the “apparent KD of MS2 coat protein” value was found to be 34.1 nM (input ligand: FMN 200 uM), 31.4 nM under setting [1] and 39.8 nM (input ligand: none).
For “UACAUGAGGAUCACCCAUGUUUUGUCGUGUAUGGUAUUUAUCUAGGAUAUCAAUUGUUUUAUUUAUGAGAAGGAGAAUAUUAAU [JMF's solution 56] (Eterna round: R96, puzzle: Exclusion NG 3)”, the “apparent KD of MS2 coat protein” value under setting [1] was 24.8 nM.
Turning to “UACAUGAGGAUCACCCAUGUUUUGUCGUGUAUGGUAUUUAUCUAGGAUAUCAAUUUAUUAAUUUAUGAGAAGGAGAAUAUUAAU [JMF's solution 20] (Eterna round: R96, puzzle: Exclusion NG 3)”, the “apparent KD of MS2 coat protein” value by setting is: (input ligand: FMN 200 uM) 34.4 nM; under setting [1], 25.8 nM; (input ligand: none) 43.3 nM.
As for “UACAUGAGGAUCACCCAUGUUUUGUCGUGUAUGGUAUUUAUCUAGGAUAUCAAUUUGUUUAUUUAUGAGAAGGAGAAUAUUAAU [JMF's solution 16] (Eterna round: R96, puzzle: Exclusion NG 3)”, the “apparent KD of MS2 coat protein” value runs as follows: (input ligand: FMN 200 uM) 39.2 nM; under setting [1], 29.8 nM; (input ligand: none) 41 nM.
As to “UACAUGAGGAUCACCCAUGUUUUGUCGUGUAUGGUAUUUAUCUAGGAUAUCAUGUUAUUUAUUUAUGAGAAGGAGAAUAUUAAU [JMF's solution 24] (Eterna round: R96, puzzle: Exclusion NG 3)”, the “apparent KD of MS2 coat protein” value came out at 32.6 nM (input ligand: FMN 200 uM), 29.1 nM under setting [1] and 32.5 nM (input ligand: none).
Turning to “UACAUGAGGAUCACCCAUGUUUUGUCGUGUAUGGUAUUUAUCUAGGAUAUCAUUUUAUUUAGCUAUGAGAAGGAGAAUAUUAAU [JMF's solution 94] (Eterna round: R96, puzzle: Exclusion NG 3)”, the “apparent KD of MS2 coat protein” value was 32.3 nM (input ligand: FMN 200 uM), 20.5 nM under setting [1] and 31.2 nM (input ligand: none).
Turning to “UACCGGCGGACCGAGGCUUUUUGCUCGUCUUAUACUACAACAUGAGGAUCACCCAUGUGGUGGUGGUCCGUUGUAGU [JL ViennaUCT Bitein mod 5] (puzzle: Sensor v3, turn-off variant 2)”, the “apparent KD of MS2 coat protein” value worked out at 21.7 nM under setting [2], 6.09 nM under setting [3] and 16.2 nM under setting [4].
“UAGAAACAUGAGGAUCACCCAUGUGAGGAUAUGAAAAAGAAAAGAAAAGAAAGAAGAAUCAGAAGGCACAAAGA [salish99-ex1_r3_083] (puzzle: Exclusion 1)”: the “apparent KD of MS2 coat protein” value came out at 33.6 nM under setting [2], 25.9 nM under setting [3] and 23.6 nM under setting [4].
As to “UAGAAAGGUAAGGAUAUCCAUGUGAAAUAAAGAGGAGAAGGUACCACAUGAGGAUCACCCAUGUGGCUCUCAAA [jl-ex6-4.54 Nando mod] (Eterna round: R97, puzzle: Exclusion 6)”, the “apparent KD of MS2 coat protein” value amounted to 13.8 nM (input ligand: FMN 200 uM) and 14.7 nM (input ligand: none).
Take “UAGAUACAUGAGGAUCACCCAUGUGAGGAUAUGAGAAUGAAAUGAAAUGAAUGAAGAAUCAGAAGGCACAAAGG [JL-ex1-4.31 salish99 mod] (Eterna round: R97, puzzle: Exclusion 1)”: the “apparent KD of MS2 coat protein” value runs as follows: (input ligand: FMN 200 uM) 238 nM; (input ligand: none) 54 nM.
Consider “UAGAUGGCUCAGGAUAUUUGCCAACUAACCCGCAAAGAAGGGAGCACAUGAGGAUCACCCAUGUGAUCGAACAA [Xeortibeza] (puzzle: Exclusion 6)”, for which the “apparent KD of MS2 coat protein” value is, setting by setting: under setting [2], 114 nM; under setting [3], 22.6 nM; under setting [4], 26.1 nM.
Turning to “UAGGUGUGAGGAUAUGGUAAAGAUAAGAUGAUAAAAGAACUCCAGAAGGCACAUGAGGAUCACCCAUGUAGAUG [Mat - Exclusion 4 - Mod of JL - D34] (puzzle: Exclusion 4)”, the “apparent KD of MS2 coat protein” value turned out to be 62.9 nM under setting [2], 22.8 nM under setting [3] and 25.8 nM under setting [4].
“UAGUAGCAAGGAUAUACAGAGGAGAGGAAAGCAAGAGGAGGACAUGAGGAUCACCCAUGUAGAAGGUGCAGAGA [JR_Exclu2_Sub020] (puzzle: Exclusion 2)”: the “apparent KD of MS2 coat protein” value under setting [2] came to 74.6 nM, the “apparent KD of MS2 coat protein” value under setting [3] was 73.9 nM and the “apparent KD of MS2 coat protein” value under setting [4] stood at 66.6 nM.
In the case of “UAGUUAGCGUGUGGCACAUACAUGAGGAUCACCCAUGUUAGCUUAUAUAUUGCUCGUCUUAUAACAACACUUAACUU [Mod JX-Electric-eye6] (Eterna round: R97, puzzle: Sensor, turn-off variant 1)”, the “apparent KD of MS2 coat protein” value (input ligand: FMN 200 uM) was 18.7 nM and the “apparent KD of MS2 coat protein” value (input ligand: none) is 19 nM.
Consider “UAGUUAUUCACAGGAUAUCGCCUCUUAUUACAUGAGGAUCACCCAUGUUUACUUAGUUACAUGUUCGAGAAGGGUGUAGCCGUU [JR_ExcNG2_Sub044] (Eterna round: R96, puzzle: Exclusion NG 2)”, for which the “apparent KD of MS2 coat protein” value under setting [1] came out at 301 nM.
As for “UAUAACCAAGGAUAUACAUGAGGAUCACCCAUGUAAUAUAAUAUAAUAUAAAUAAAAUGUAGAAGGUGGGAUAU (Eterna round: R97, puzzle: Exclusion 3)”, the “apparent KD of MS2 coat protein” value was determined as 26.6 nM (input ligand: FMN 200 uM) and 31.4 nM (input ligand: none).
Take “UAUAUACAUGAGGAUCACCCAUGUAAGGAUAUGCUUUAUUAUUAUUAUUAUUAUUAUUGCAGAAGGUACAUUAU [LRO-Excl01-05] (Eterna round: R97, puzzle: Exclusion 1)”: the “apparent KD of MS2 coat protein” value turned out to be 38.4 nM (input ligand: FMN 200 uM) and 33.8 nM (input ligand: none).
Consider “UAUAUAUAGUAAGGAUAUGUAUAUGUUUUAUAAACAGAAGGUACUGACAUGAGGAUCACCCAUGUUUUAGUGUGGGCAUGUAGA [JMF's solution 54] (Eterna round: R96, puzzle: Exclusion NG 1)”, for which the “apparent KD of MS2 coat protein” value under setting [1] came to 44.5 nM.
As for “UAUAUAUAGUAAGGAUAUGUAUUAAUAUUAUAAACAGAAGGUACUGACAUGAGGAUCACCCAUGUUUUAGUGUGGGCAUGUAGA [JMF's solution 77] (Eterna round: R96, puzzle: Exclusion NG 1)”, the “apparent KD of MS2 coat protein” value under setting [1] came to 66.8 nM.
Consider “UAUAUGUCAGGAUAUUAGUAGUAAAUGAAUAAAAUUAUUACUGAGAAGGGACAUGAGGAUCACCCAUGUGUCUC [Mat - Exclusion 4 - Eli Mod - D26] (Eterna round: R97, puzzle: Exclusion 4)”, for which the “apparent KD of MS2 coat protein” value is, setting by setting: (input ligand: FMN 200 uM) 577 nM; (input ligand: none) 175 nM.
“UAUCGGGACUGAGGAUAUUCGUUCGAACACGAAGAAGAAGGUAGUGUCAGGGACAUGAGGAUCACCCAUGUGAUUUCAGUCCCA [JL ViennaUCT Erinle mod 4] (Eterna round: R96, puzzle: Exclusion NG 1)”: the “apparent KD of MS2 coat protein” value (input ligand: FMN 200 uM) was 133 nM, the “apparent KD of MS2 coat protein” value under setting [1] turned out to be 96.8 nM and the “apparent KD of MS2 coat protein” value (input ligand: none) turned out to be 139 nM.
Regarding “UAUGUAUACGUCAGGAUAUACGGUCCAGAUGGUAAGUAGAAGGGACAUGAGGAUCACCCAUGUAUAAUAAUAAU [AK 1] (puzzle: Brourd's mod of Exclusion 4)”, the “apparent KD of MS2 coat protein” value under setting [2] turned out to be 20.2 nM, the “apparent KD of MS2 coat protein” value under setting [3] is 18 nM and the “apparent KD of MS2 coat protein” value under setting [4] was 22.5 nM.
In the case of “UAUGUGUCAGGAUAUUAGUAGUAAAUAAAUAAAAUUAUUACUGAGAAGGGACAUGAGGAUCACCCAUGUGCCUU [Salish 062 v31] (Eterna round: R97, puzzle: Exclusion 4)”, the “apparent KD of MS2 coat protein” value was 23.2 nM (input ligand: FMN 200 uM) and 12.3 nM (input ligand: none).
Regarding “UAUUACCUAGGAUAUACAUGAGGAUCACCCAUGUCACGGGUCAACUUGUCCUACGCGUGUAGAAGGAGGGACCC [JL Ceriza mod 7] (puzzle: Exclusion 3)”, the “apparent KD of MS2 coat protein” value under setting [3] came to 19.7 nM.
Consider “UAUUACGCAAGCAGGUCCCACAUGAGGAUCACCCAUGUGCUCGUCUUAUAACGAUCUGUGGGAAAACCUACGGAUCG [Elimod 19 - Jieux - Sensor, turn-off variant 1] (Eterna round: R97, puzzle: Sensor, turn-off variant 1)”, for which the “apparent KD of MS2 coat protein” value by setting is: (input ligand: FMN 200 uM) 45.8 nM; (input ligand: none) 48.4 nM.
Regarding “UAUUAGCAAGCAAAUGGGUACAUGAGGAUCACCCAUGUGCUCGUCUUAUAAGGUACUGUGACGAAAGUCACGGUCCC [mod--Eli7] (Eterna round: R97, puzzle: Sensor, turn-off variant 1)”, the “apparent KD of MS2 coat protein” value runs as follows: (input ligand: FMN 200 uM) 23 nM; (input ligand: none) 24 nM.
“UAUUAGCAAGCGAGAUCCCACAUGAGGAUCACCCAUGUGCUCGUCUUAUAAAAGACUGUGACGAGAGUCACGGUCAC [Mat - Sensor, turn-off var - Eli Mod - D23] (Eterna round: R97, puzzle: Sensor, turn-off variant 1)”: the “apparent KD of MS2 coat protein” value was found to be 13.7 nM (input ligand: FMN 200 uM) and 12 nM (input ligand: none).
As to “UAUUAGCAAGUGAGAUCCCACAUGAGGAUCACCCAUGUGCUCGUCUUUUAACGUACUGUGAGGAAACUCACGGUACG [Sensor-V1 #82] (Eterna round: R97, puzzle: Sensor, turn-off variant 1)”, the “apparent KD of MS2 coat protein” value (input ligand: FMN 200 uM) worked out at 62.1 nM and the “apparent KD of MS2 coat protein” value (input ligand: none) came out at 67.1 nM.
“UAUUAUAAUGUAGGAUAUCUGCACGUGUAGUGCAGAGAAGGACAUGAGGAUCACCCAUGUAUAGUAGCUUCGGCUACAUUAUUU [ENG1-B3] (Eterna round: R96, puzzle: Exclusion NG 1)”: the “apparent KD of MS2 coat protein” value amounted to 90.5 nM (input ligand: FMN 200 uM), 61.8 nM under setting [1] and 71.2 nM (input ligand: none).
